The nature of data set [1]: melting temperature (DSF); higher = more thermostable. In a few lines: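 Enzymes made in E. coli C41(DE3) were nickel-bead purified and cut free with SUMO protease before testing. Differential scanning fluorimetry gave each melting temperature. For this, 5 μL 5X Sypro Orange was added to 45 μL enzyme (0 to 0.3 mg/mL) in sealed PCR plates, and a Bio-Rad CFX96 read fluorescence from 25 °C over 250 cycles of 0.3 °C each, ramping at 0.3 °C/s.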

The nature of data set [2]: purified protein yield per well (BCA); higher = higher soluble expression. In a few lines: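 Purified protein yield per well is reported, as measured by the Pierce Rapid Gold BCA kit. The enzymes came from E. coli C41(DE3) autoinduction cultures of 2 mL with 100 µg/mL kanamycin, held at 37 °C for 2 h and 18 °C for 40 h, then lysed and purified on Ni-charged magnetic beads with SUMO protease release. The detection threshold is 25 ug (0.1 mg/mL), and lower values are under it.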

Data set [3] in a line: PET hydrolysis, aromatic products released after 48 h (umol product/mg enzyme); higher = more PET depolymerization activity. In a few lines:
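Candidate enzymes, made tagless by SUMO cleavage and purified on nickel beads, were added at 5 μg (50 μL) to 3.5 mg of either amorphous PET film or crystalline PET powder in 450 μL buffer. The sealed plates stood unshaken for 48 h at 40 or 60 °C. Activity on PET is the aromatic product found in the supernatant per mg enzyme, read at 260 and 280 nm against buffer blanks.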

The mark [4] stands for this setting: substrate: aFilm, 40 °C, pH 4.5.
The mark [5] stands for this setting: substrate: aFilm, 40 °C, pH 5.5.
Setting [6] is: substrate: aFilm, 40 °C, pH 6.5.
Setting [7] is: substrate: aFilm, 40 °C, pH 7.5.
[8] abbreviates: substrate: aFilm, 60 °C, pH 4.5.
The mark [9] stands for this setting: substrate: aFilm, 60 °C, pH 5.5.
The mark [10] stands for this setting: substrate: aFilm, 60 °C, pH 6.5.
Setting [11] is: substrate: aFilm, 60 °C, pH 7.5.
Where [12] appears, read: substrate: cryPow, 40 °C, pH 4.5.
Where [13] appears, read: substrate: cryPow, 40 °C, pH 5.5.
The mark [14] stands for this setting: substrate: cryPow, 40 °C, pH 6.5.
Where [15] appears, read: substrate: cryPow, 40 °C, pH 7.5.
[16] abbreviates: substrate: cryPow, 60 °C, pH 4.5.
Setting [17] is: substrate: cryPow, 60 °C, pH 5.5.
The mark [18] stands for this setting: substrate: cryPow, 60 °C, pH 6.5.
The mark [19] stands for this setting: substrate: cryPow, 60 °C, pH 7.5.

± gives the standard deviation of the averaged measurements.

As for “ADNPYERGPDPTRTSVATERGPFANTSVSVPSGHGFNGGRIYYPTDTSQGTFGAIAISPGYTALFSVELAWMGPWLASHGFVVIGIETNSTNDFDTARGTQLLAALDYLTQQSPVRDRIDPSRLAVSGHSMGGGGALSAAMRRSSLKAVVGITPFSPSSNLASNQVPTMVISGQADTVVTPSYALDLYNSLPASTESVYLEVAGGDHGFMVGRSNPVLIRTMLPFLKMFVDNDTRYSQFLCPLMDNSGVVTYRSTCPLLPTPPTTPPPTGDPTSPPPSTDPTTPPPSGSTGQIVGTQSNRCIDVPNSSRNNGTRVQLYDCHGQANQTWTYNSTTKQLRVYGDMCLDAAGSGNGAAVQIYNCHGQTNQQWNLNSNGTISGVQSNRCLDVWSTNNGAQIQLYDCHGQTNQQFRIRS [ESM173]”, in data set [1], the melting temperature is 61.6 C. Further, the “purified protein yield per well” value in data set [2] was 199 µg. Moreover, the PET hydrolysis in data set [3] (setting [4]), in data set [3] (setting [5]), in data set [3] (setting [6]), in data set [3] (setting [7]), in data set [3] (setting [8]) and in data set [3] (setting [9]) was less than 3 each time. Besides, the PET hydrolysis is less than 3 in data set [3] (setting [10]); less than 3 in data set [3] (setting [11]); 3.5 ± 0.71 in data set [3] (setting [12]); 11.5 ± 0.71 in data set [3] (setting [13]); 20.5 ± 0.71 in data set [3] (setting [14]); 11 in data set [3] (setting [15]). The PET hydrolysis in data set [3] (setting [16]), in data set [3] (setting [17]), in data set [3] (setting [18]) and in data set [3] (setting [19]) was less than 3 in each case.
In the case of “ADNPYERGPDPTRTSVATERGPFANTSVSVPTGYGFNGGRIYYPTDTSQGTFGAIAISPGYTALFSAELAWMGPWLASHGFVVIGIETNSRNDFDTARGTQLLAALDYLTQQSPVRDRVDASRLAVAGHSMGGGGALSAATRRPALKAAVGITPFSPSSNLANDRVPTMVISGQADTVVTPSYALDLYNSLPSTTESVYVEVAGGDHGFMVGRSNPVMIRTMLPFLKIFVDNDARYSQFLCPLMDNSGVVTYRSTCPLINTPTTPPPTSPPPTSPPPTSPPPTTPPPGSATQIVGVQSNRCIDVPNSSRNNGTRVQLYDCHGQTNQAWTYTANKQLQVYGNMCLDAAGTGNGAAVQIYSCHGGANQQWNVNSNGTISGVQSGRCLDVWSTSNGAQVQLYDCHGGTNQRFNLVAR [TEP082]”, the melting temperature in data set [1] was 63.1 C. In addition, the “purified protein yield per well” value in data set [2] turned out to be 282 µg. Further, the PET hydrolysis in data set [3] (setting [4]), in data set [3] (setting [5]), in data set [3] (setting [6]), in data set [3] (setting [7]), in data set [3] (setting [8]) and in data set [3] (setting [9]) was less than 3 each time. For the same sequence, the PET hydrolysis is less than 3 in data set [3] (setting [10]); less than 3 in data set [3] (setting [11]); 6.5 ± 0.71 in data set [3] (setting [12]); 15 ± 1.4 in data set [3] (setting [13]); 39.5 ± 2.1 in data set [3] (setting [14]); 34 ± 1.4 in data set [3] (setting [15]). Further, the PET hydrolysis was less than 3 in data set [3] (setting [16]), 2 ± 2.8 in data set [3] (setting [17]), 6 ± 1.4 in data set [3] (setting [18]) and 3.5 ± 0.71 in data set [3] (setting [19]).
In the case of “ADNPYERGPNPTESLIEAARGPFATSQTTVSSLSVTGFGGGVIYYPTDTSQGTFGGIAISPGYTAAWSSLDWLGPRLASHGFVVIGIETNTRLDQPASRGDQLLAALDYLTQRSSVRSRVDATRLAVAGHSMGGGGSLEAAKDRTSLKAAIPLAPWNTDKTWPEVRTPTLIIGGESDTVAPVSSHSIPFYTSLTSAREKAYLELDNASHFFPQTSNTTMAKYMISWMKRYIDNDTRYEQFLCPGPSTGLLSGISDWRQTCPGS [TEP073]”, the melting temperature in data set [1] came out at 46.9 C. The “purified protein yield per well” value in data set [2] is 81.6 µg. Besides, the PET hydrolysis in data set [3] (setting [12]), in data set [3] (setting [13]), in data set [3] (setting [14]), in data set [3] (setting [15]), in data set [3] (setting [16]) and in data set [3] (setting [17]) was less than 3 throughout. In addition, the PET hydrolysis in data set [3] (setting [18]) and in data set [3] (setting [19]) was less than 3 in each case.
In data set [1], “ADNPYERGPNPTQASIAASRGTFATAEVSVGGGNGFAAAKIYYPTDTSQGTFGAIAIVPGYTATWAAEGAWMGPWLASFGFVVIGIDTLSRNDFDTARGTQLLAALDYLTQRSSVRSRVDASRLAVMGHSMGGGGAISAALRRPSLKAAVGLAPFSPSQGTSGMRVPSMLLAGQRDGTVTPSSVRNLYNAIPATTEKAYLELTGAGHGFPTSANSVMMRKVIPWLKIFVDQDTRYQQFLCPLVDWTGITSYQSSCPLIPGGSTGTTYNLVNSSGKCADVNAASQVNGAALLLWTCHTNPNQRWTETSAKELRVYDNPKCMDAGAAQQGTRVTINSCSGGGSQKWTVNANGTVTNDLSGRCLGAAGGATTDNTPLVVASCDGSPGQQWTKQS [TEP093]” displayed a melting temperature of 69.7 C. For the same sequence, the “purified protein yield per well” value in data set [2] is 166 µg. Moreover, the PET hydrolysis in data set [3] (setting [12]) was 4; in data set [3] (setting [13]), 12; in data set [3] (setting [14]), 31; in data set [3] (setting [15]), 28; in data set [3] (setting [16]), less than 3; in data set [3] (setting [17]) it was 4. For the same sequence, the PET hydrolysis in data set [3] (setting [18]) and in data set [3] (setting [19]) was 7 throughout.
In data set [1], “ADNPYQRGPAPTAASIAADRGPFATAQVTVPRGNGFGGGVIYYPTDTSQGTFGAIAIAPGFGTAWSYYAWQGPRLASFGFVVIGIETNTLNDYADARAAQLLAALDYLVNSSSVRDRVDRNRLAVGGHSMGGGGAILAANQRPSLLTAVGQAPYVPDGSLSGIKSPTIIFAGQADGTVTPQYAQNAYNTIPGSVERAYVEIANEGHGFPAGGGGGNSGAFARTMMVWLKLFVDKDTRYAPFLCPSLTNANGISKYMASCPLDPPGGGPTASPTSTPTSTPTSTPTSTPTGTPPAGGTSALRGVASGRCLDVNGASQANGATVLIWDCNGQNNQKWTSTSAGELRVYGNKCLDVNGGGTADGSAVIIWDCNGQSNQKWRLNSDGSITAVGANKCLDVSGNGTANGTRVQIWSCTGGTNQKWTRV [ESM010]” had a melting temperature of 64.6 C. Besides, the “purified protein yield per well” value in data set [2] came out at 79.7 µg. Moreover, the PET hydrolysis is less than 3 in data set [3] (setting [12]); 3 in data set [3] (setting [13]); 4 in data set [3] (setting [14]); 5 in data set [3] (setting [15]); less than 3 in data set [3] (setting [16]); less than 3 in data set [3] (setting [17]). The PET hydrolysis in data set [3] (setting [18]) and in data set [3] (setting [19]) was less than 3 throughout.

(Values after the supplement of paper PMC12455559.)
